Among the data in paper doi:10.1101/2025.03.21.644400 are stoichiometry N values, retold here.

This experiment deals with MIYEI. Kind of experiment: crystal structure.

Turning to MIYEI, the stoichiometry N stood at 2.

In general, stoichiometry N refers to a count of units in the complex or per binding partner.
